The term EC50 denotes the concentration giving half of the maximal effect. In general, EC50 (read off the curve) refers to the concentration that produces a half-maximal response. Read a high EC50 (read off the curve) as weaker potency.

These results are taken from patent US20220332829A1 (NANJING SANHOME PHARMACEUTICAL, published 2022).

Assay [1] has as its target T1, B7-H3 on surface of tumor cell (786-0, MDA-MB-231, Raji-B7-H3 cells) (human, UniProt Q5ZPR3 29-534).
T1 construct: whole, on cells; The making of Raji-B7-H3 cells is not described; also called B7-H3 on the surface of tumor cells; human B7-H3
T1 sequence (looked up): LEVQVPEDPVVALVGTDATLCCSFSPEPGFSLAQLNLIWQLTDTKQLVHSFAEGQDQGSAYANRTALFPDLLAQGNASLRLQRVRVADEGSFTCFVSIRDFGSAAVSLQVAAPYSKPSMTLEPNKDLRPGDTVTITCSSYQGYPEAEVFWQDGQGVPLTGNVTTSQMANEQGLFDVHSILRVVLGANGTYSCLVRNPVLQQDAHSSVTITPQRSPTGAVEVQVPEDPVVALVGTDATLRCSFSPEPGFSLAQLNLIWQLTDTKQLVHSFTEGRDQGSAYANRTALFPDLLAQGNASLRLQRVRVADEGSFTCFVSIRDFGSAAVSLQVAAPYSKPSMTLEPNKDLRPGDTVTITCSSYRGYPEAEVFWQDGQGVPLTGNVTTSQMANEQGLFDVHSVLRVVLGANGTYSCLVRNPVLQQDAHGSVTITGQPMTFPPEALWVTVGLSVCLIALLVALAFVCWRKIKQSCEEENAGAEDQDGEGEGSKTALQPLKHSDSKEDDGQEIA
In words: FACS on 786-0 cells. Here is the method:
(§1) The binding activity of antibodies to B7-H3 on the surface of tumor cells was analyzed by FACS. Mean fluorescence intensity (MFI) and EC₅₀ detected by FACS indicate the binding activity of the antibody to cells. After 786-0 and MDA-MB-231 cells were digested, they were resuspended in 2% FBS-PBS solution and counted. After raji-B7-H3 cells were collected, they were resuspended in 2% FBS-PBS and counted. The above cells were plated in a cell plate with 1×10⁵ cells per well. The anti-B7-H3 antibody of the present disclosure was used as the primary antibody and added to cell plates in gradient dilution starting from 20 μg/mL with a total of 8 concentrations: 20,000 ng/mL, […], 2,000 ng/mL, 400 ng/mL, 80 ng/mL, 16 ng/mL, 3.2 ng/mL, and 0.64 ng/mL respectively. The plates were incubated at 4° C. for 1 h with hBRCA84D as the positive control antibody. PE-Anti-Human IgG (Biolegend, Cat. No. 409303, 1.25 μl/well) was used as the secondary antibody, washed, and detected for the fluorescence intensity generated by the binding of the antibody to the cell surface by a flow cytometer.

Assay [2] deals with T2, human 2Ig-B7-H3-His protein (human, UniProt Q5ZPR3 29-463).
T2 sequence: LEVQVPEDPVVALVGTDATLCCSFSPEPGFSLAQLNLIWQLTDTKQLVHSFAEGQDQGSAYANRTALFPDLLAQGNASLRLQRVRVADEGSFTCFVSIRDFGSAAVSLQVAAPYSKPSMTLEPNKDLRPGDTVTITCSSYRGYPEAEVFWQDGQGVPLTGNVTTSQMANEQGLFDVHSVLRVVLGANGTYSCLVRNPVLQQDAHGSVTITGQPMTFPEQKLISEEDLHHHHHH
Kind of assay: ELISA, plate coated with human 2Ig-B7-H3-His, detection with anti-human IgG HRP, OD450. The procedure: The binding activity of antibodies was analyzed by ELISA. 96-well ELISA plates were coated with human 4Ig-B7-H3-His protein or 2Ig-B7-H3-His protein (1 μg/well, prepared in Examples 1 and 2) and incubated overnight at 4° C. The plates were washed 3 times with 1×PBST and then blocked with 5% skim milk at 37° C. for 2 h. After washing 3 times with 1×PBST, the anti-B7-H3 antibody of the present disclosure was used as the primary antibody and added to the ELISA plates in 5-fold gradient dilution starting from 2 μg/mL with a total of 8 concentrations: 2,000 ng/mL, 400 ng/mL, 80 ng/mL, 16 ng/mL, 3.2 ng/mL, 0.64 ng/mL, 0.128 ng/mL and 0.0256 ng/mL respectively. The plates were incubated at 37° C. for 2 h with hBRCA84D as the positive control antibody. After washing 5 times with 1×PBST, Anti-Human IgG HRP (Jackson, 109-035-003, 1:5000) was used as the secondary antibody and incubated at 37° C. for 1 h. After washing 5 times with 1×PBST, color developing solution TMB was added to the plate, and microplate reader (Thermo, Multiskan FC) was used to read OD450 value after termination of the reaction. EC₅₀ was generated by GraphPad.
For orientation: ELISA stands for enzyme-linked immunosorbent assay.

Assay [3] has as its target T1, B7-H3 on surface of tumor cell (786-0, …). Kind of assay: cell-based or functional assay.
Assay [4] deals with T3, Cynomolgus B7-H3-His (Sino Biological, Cat. No. 90806-C08H) (cynomolgus monkey).
T3 construct: Bought reagent; also called cynomolgus monkey B7-H3; monkey B7-H3
In words: ELISA, plate coated with cynomolgus B7-H3-His, detection with anti-human IgG HRP, OD450. Here is the method: The binding activity of antibodies was analyzed by protein based ELISA. Cynomolgus B7-H3-His (0.5 μg/well, Sino Biological, Cat. No. 90806-C08H) was coated on 96-well ELISA plates. The anti-B7-H3 antibodies of the present disclosure was used as the primary antibody and added to the ELISA plates in 5-fold gradient dilution starting from 2 μg/mL with a total of 8 concentrations: 2,000 ng/mL, 400 ng/mL, 80 ng/mL, 16 ng/mL, 3.2 ng/mL, 0.64 ng/mL, 0.128 ng/mL, and 0.0256 ng/mL respectively. The plates were incubated at 37° C. for 2 h with AB06.12-4P as the positive control antibody. Anti-Human IgG HRP (Jackson, 109-035-003, 1:10,000) was used as the secondary antibody. Color developing solution TMB (3,3′,5,5′-tetramethylbenzidine) was added to the plate, and microplate reader (Thermo, Multiskan FC) was used to read OD450 value after termination of the reaction. EC₅₀ was generated by GraphPad.

Assay [5] deals with T1, B7-H3 on surface of tumor cell (786-0, …). In words: FACS on MDA-MB-231 cells. Here is the method:
as §1

B1: hBRCA84D (antibody, human IgG1, kappa, V domains shown)
VH: EVQLVESGGGLVQPGGSLRLSCAASGFTFSSFGMHWVRQAPGKGLEWVAYISSDSSAIYYADTVKGRFTISRDNAKNSLYLQMNSLRDEDTAVYYCGRGRENIYYGSRLDYWGQGTTVTVSS
VL: DIQLTQSPSFLSASVGDRVTITCKASQNVDTNVAWYQQKPGKAPKALIYSASYRYSGVPSRFSGSGSGTDFTLTISSLQPEDFATYYCQQYNNYPFTFGQGTKLEIKR
notes: Humanized antibody from WO2011/109400; also called positive control antibody hBRCA84D; control antibody hBRCA84D
In the case of B1, the EC50 in assay [1] stood at 0.226 µg/mL; in assay [5], 0.384 µg/mL. Further, the results for the “Mean fluorescence intensity (MFI)” value in assay [1] and in assay [5] were 233000 and 35800, respectively. Moreover, the concentration for a half-maximal effect (EC50 (read off the curve)) in assay [2] is approximately 0.01 µg/mL; in assay [4], approximately 0.006 µg/mL. The “EC50 Ratio (ADCC, LDH method; EC50 of hBRCA84D divided by EC50 of the antibody; 786-0 target cells, human PBMC effectors)” value in assay [3] was determined as 1.
